Data published in US20200199231A1 (Genmab, published 2020).
Like-named read-outs stand apart in the source and are kept apart here.

Tests used:
human CD20 [1] = target: T1, human CD20 (human, UniProt P11836 1-297); assay: flow cytometry on Daudi cells (CD20-positive, CD3-negative); PE-conjugated goat anti-human IgG F(ab')2; median FI (PE)
T1 construct: whole, on cells; On Daudi and other human B cell lines, on human B cells in blood, or transiently expressed in HEK293F cells (construct pEE12.4CD20HS-GA); also called wild type CD20; WT CD20
T1 sequence (looked up): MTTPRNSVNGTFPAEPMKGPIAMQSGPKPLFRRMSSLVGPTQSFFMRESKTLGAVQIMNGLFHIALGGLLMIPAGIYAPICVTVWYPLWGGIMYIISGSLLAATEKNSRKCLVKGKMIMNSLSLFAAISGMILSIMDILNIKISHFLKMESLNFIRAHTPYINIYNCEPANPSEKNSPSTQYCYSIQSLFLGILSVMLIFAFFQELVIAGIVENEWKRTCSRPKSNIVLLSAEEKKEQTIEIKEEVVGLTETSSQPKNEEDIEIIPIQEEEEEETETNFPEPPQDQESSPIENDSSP
Experimental: (§1) In addition to the non-activating mutations, L234F, L235E, D265A, on both arms, the bispecific antibody contained an F405L mutation on one arm and a K409R mutation on the other arm.
(§2) Cells (1×10⁵ cells/well) were incubated in polystyrene 96-well round-bottom plates (Greiner bio-one, cat. no. 650101) with serial dilutions of antibodies (range 0.041 to 30 μg/mL in 3-fold dilution steps [A-E] and 0.00061 to 10 μg/mL in 4-fold dilution steps [F-I]) in 100 μL PBS/0.1% BSA/0.02% azide (from here designated as staining buffer) at 4° C. for 30 min.
(§3) After washing twice in staining buffer, cells were incubated in 50 μL secondary antibody at 4° C. for 30 min. As a secondary antibody, R-Phycoerythrin (PE)-conjugated goat-anti-human IgG F(ab′)₂ (cat. no. 109-116-098, Jackson ImmunoResearch Laboratories, Inc., West Grove, Pa.) diluted 1:200 in staining buffer, was used for all experiments. Next, cells were washed twice in staining buffer, re-suspended in 30 μL staining buffer and analyzed on an iQue screener (Intellicyt Corporation, USA) (for FIG. 1A-E) or re-suspended in 100 μL staining buffer and analyzed on a FACSCANTOII (BD Biosciences) (FIG. 1F-I). Binding curves were analyzed using non-linear regression (sigmoidal dose-response with variable slope) using GraphPad Prism V75.04 software (GraphPad Software, San Diego, Calif., USA).

human CD20 [2] = target: T1, human CD20; assay: as above; remark: listed apart in the source
Experimental: as §1, §2, §3

B1: IgG1-7D8-FEAR (antibody, V domains shown)
VH: EVQLVESGGGLVQPDRSLRLSCAASGFTFHDYAMHWVRQAPGKGLEWVSTISWNSGTIGYADSVKGRFTISRDNAKNSLYLQMNSLRAEDTALYYCAKDIQYGNYYYGMDVWGQGTTVTVSS
VL: EIVLTQSPATLSLSPGERATLSCRASQSVSSYLAWYQQKPGQAPRLLIYDASNRATGIPARFSGSGSGTDFTLTISSLEPEDFAVYYCQQRSNWPITFGQGTRLEIK
Human CD20 [1]
  EC50 (read off the curve): ~0.3 µg/mL
Human CD20 [2]
  EC50 (read off the curve): ~0.3 µg/mL
